The values below come from US20120322685A1, “DEVICE FOR COLLECTING AND ANALYZING MIGRATORY TUMOR CELLS” (priority 2010, published 2012).

Assay [1] concerns Human lung tumors heterotransplanted into nude mice. Nature of the assay: in vivo invasion assay, chemotaxis-based cell collection into needles, human lung tumor heterotransplants. To be noted: needles containing 25 nM EGF; first mouse to mouse transplant. An excerpt:
(§1) Therefore, an in vivo invasion assay was created in which three needles (microneedles ˜100 um in diameter) containing matrigel and various growth factors are placed independently with microscopic precision, using a specially designed micromanipulator guided device, into the primary tumor for chemotaxis-based cell collection in vivo [3]. One needle contains control conditions (usually no ligand or an inhibitor), and the other two are identical. […] Fetal serum was also sufficient but this required signaling by the EGF receptor again implicating the EGF receptor. Furthermore, CSF-1 was also sufficient for cell collection. […] Migration and collection was directly correlated with macrophage density in the mammary gland, stage of progression to malignancy (only background levels of cells, <200 cells, were collected from normal mammary glands and adenoma stage tumors compared with carcinoma stage tumors, ˜1000 cells) and the presence of CSF1 in the tumor was required for cell collection as shown using mouse models with either decreased (op/op) or increased (tet on CSF-1) CSF-1 expression that regulates macrophage recruitment to the mammary gland and metastasis. […] Furthermore, the motility of tumor cells and intravasation occurs preferentially in association with macrophages. […]

Assay [2] concerns tumor cells and macrophages of primary mammary tumors. Put plainly: in vivo invasion assay, needles with matrigel and growth factors in primary mammary tumor. Also noted: species or system rats and mice. The conditions noted are these: factor in matrigel-filled needle placed in primary tumor.
From the text: as §1

Assay [3] deals with MDA-MB-231 derived mammary tumors. Put plainly: in vivo invasion assay, MDA-MB-231 derived mammary tumors. The conditions noted are these: MDA-MB-231 injected into mammary fat pad of mice; FIG. 1C. Set-up: species or system human tumor xenograft in SCID mice tumor xenograft in SCID mice. An excerpt: Therefore, an in vivo invasion assay was created in which three needles (microneedles ˜100 um in diameter) containing matrigel and various growth factors are placed independently with microscopic precision, using a specially designed micromanipulator guided device, into the primary tumor for chemotaxis-based cell collection in vivo [3]. One needle contains control conditions (usually no ligand or an inhibitor), and the other two are identical. […] Fetal serum was also sufficient but this required signaling by the EGF receptor again implicating the EGF receptor. Furthermore, CSF-1 was also sufficient for cell collection. […]
Mammary tumors derived by injecting the human cell line MDA-MB-231 into a mammary fat pad of mice were used in the in vivo invasion assay. […] The involvement of EGF and CSF1 in carcinoma cell invasion has been analyzed from primary breast tumors derived from the injection of MDA-MB-231 cells into the mammary fat pads of SCID mice. […]

B1: EGF: epidermal growth factor, chemotactic factor used in collection needles (protein, UniProt P01133 23-1207, looked up)
Pro-epidermal growth factor: PQHWSCPEGTLAGNGNSTCVGPAPFLIFSHGNSIFRIDTEGTNYEQLVVDAGVSVIMDFHYNEKRIYWVDLERQLLQRVFLNGSRQERVCNIEKNVSGMAINWINEEVIWSNQQEGIITVTDMKGNNSHILLSALKYPANVAVDPVERFIFWSSEVAGSLYRADLDGVGVKALLETSEKITAVSLDVLDKRLFWIQYNREGSNSLICSCDYDGGSVHISKHPTQHNLFAMSLFGDRIFYSTWKMKTIWIANKHTGKDMVRINLHSSFVPLGELKVVHPLAQPKAEDDTWEPEQKLCKLRKGNCSSTVCGQDLQSHLCMCAEGYALSRDRKYCEDVNECAFWNHGCTLGCKNTPGSYYCTCPVGFVLLPDGKRCHQLVSCPRNVSECSHDCVLTSEGPLCFCPEGSVLERDGKTCSGCSSPDNGGCSQLCVPLSPVSWECDCFPGYDLQLDEKSCAASGPQPFLLFANSQDIRHMHFDGTDYGTLLSQQMGMVYALDHDPVENKIYFAHTALKWIERANMDGSQRERLIEEGVDVPEGLAVDWIGRRFYWTDRGKSLIGRSDLNGKRSKIITKENISQPRGIAVHPMAKRLFWTDTGINPRIESSSLQGLGRLVIASSDLIWPSGITIDFLTDKLYWCDAKQSVIEMANLDGSKRRRLTQNDVGHPFAVAVFEDYVWFSDWAMPSVMRVNKRTGKDRVRLQGSMLKPSSLVVVHPLAKPGADPCLYQNGGCEHICKKRLGTAWCSCREGFMKASDGKTCLALDGHQLLAGGEVDLKNQVTPLDILSKTRVSEDNITESQHMLVAEIMVSDQDDCAPVGCSMYARCISEGEDATCQCLKGFAGDGKLCSDIDECEMGVPVCPPASSKCINTEGGYVCRCSEGYQGDGIHCLDIDECQLGEHSCGENASCTNTEGGYTCMCAGRLSEPGLICPDSTPPPHLREDDHHYSVRNSDSECPLSHDGYCLHDGVCMYIEALDKYACNCVVGYIGERCQYRDLKWWELRHAGHGQQQKVIVVAVCVVVLVMLLLLSLWGAHYYRTQKLLSKNPKNPYEESSRDVRSRRPADTEDGMSSCPQPWFVVIKEHQDLKNGGQPVAGEDGQAADGSMQPTSWRQEPQLCGMGTEQGCWIPVSSDKGSCPQVMERSFHMPSYGTQTLEGGVEKPHSLLSANPLWQQRALDPPHQMELTQ
modifications: Pro-epidermal growth factor
notes: epidermal growth factor, chemotactic factor used in collection needles
For B1, the “fold more cells collected in needles as compared to needles with buffer alone” value in assay [1] was 2.5 fold. Further, the “chemotaxis to indwelling needles / cell collection” value in assay [2] is recorded as “stimulated collection”. For the same molecule, in assay [3], the “fold more cells collected in response to EGF” value is on record as 2.5 fold.

B2: CSF-1: growth factor chemotactic for macrophages (protein, UniProt P09603 33-554, looked up)
Macrophage colony-stimulating …: EEVSEYCSHMIGSGHLQSLQRLIDSQMETSCQITFEFVDQEQLKDPVCYLKKAFLLVQDIMEDTMRFRDNTPNAIAIVQLQELSLRLKSCFTKDYEEHDKACVRTFYETPLQLLEKVKNVFNETKNLLDKDWNIFSKNCNNSFAECSSQDVVTKPDCNCLYPKAIPSSDPASVSPHQPLAPSMAPVAGLTWEDSEGTEGSSLLPGEQPLHTVDPGSAKQRPPRSTCQSFEPPETPVVKDSTIGGSPQPRPSVGAFNPGMEDILDSAMGTNWVPEEASGEASEIPVPQGTELSPSRPGGGSMQTEPARPSNFLSASSPLPASAKGQQPADVTGTALPRVGPVRPTGQDWNHTPQKTDHPSALLRDPPEPGSPRISSLRPQGLSNPSTLSAQPQLSRSHSSGSVLPLGELEGRRSTRDRRSPAEPEGGPASEGAARPLPRFNSVPLTDTGHERQSEGSFSPQLQESVFHLLVPSVILVLLAVGGLLFYRWRRRSHQEPQRADSPLEQPEGSPLTQDDRQVELPV
For the molecule B2, the “chemotaxis to indwelling needles / cell collection” value in assay [2] is recorded as “sufficient”.
